Data reported in a protein production outcome set (Wang et al. 2014).

Assay: label from the status in PepcDB records

Row | Sequence | protein production
1 | MTDRLERKLAIAANQDKADLLIKNGQIVDVFQLETFEGDVVIADGEIVAISDPGTYEAHEEVDAKGAFIAPAFIDGHVHIESSMVAPEQFAKVVVPHGVTTVIADPHEIANVAGVQGVEYMLDASEGIPLDVKMMVPSCVPATPFEHSGARLTAEEVAELFRDPRIFGLGEVMDYPAVLTRDQEMMAKLKAAHSEGRIVDGHGAGLDSVALNAYTAAGIGNDHEAVTPEEAKARLQRGMYLLIREGTAAKDFDALMKAITPMNSRRALFVTDDKHLDELVEEGSIDHHVRKAIQIGVNPLQAIQMASLNAAECFKLAKKGAIAPGFTADLLFIEDLQSLAITHVFKNGTCVAKNGKLIVPIRETVQPPQRLLESVNMKLVTKEQLELSLQSDEEAHLIQIQPGSIVTKHIREKVAVKDGVFIPSVARDQLKLVVAERHHKRGTVGVGIVKGFGLTKGAIATTVAHDSHNIVAVGTNDEDLLAAIKELENIQGGMTIVKDGKVLVSLPLTIGGLMSDQSYDVVCEQIKSVDAAIGALGFVGDFNPFLTLSFLALPVIPEIKLTDQGLFDVTSFSFIDQQVYAEETN | failed
2 | MRWLNRHKFLPFLAWLPQQSRASVGRDALVGLSGAILALPQSIAYALIAGLPPEYGLYAAIVPVLIACLWGSSWHLICGPTAAISIVLYVSVSPLAVPASQDYIMLILLLTFIAGVFQLLLGMMRFGALVNFVSHSVVLGFTLGAAVVIALGQMPNLLGIDLPSQTTALKSLSAVLEHRGELDKPSLMLGLLTLTLGIGLKAWVPRWPTLLIALVSSSLLVWLWPAMFGHVRVVSAFVGHLPPFSPLPLDLELILKLLPTAVAVGMLGLVNSLSIARSLSARSQQMLNANQEVRAQGLSNMVGSLFSGYLSAGSFTRAALSYEAGARSPLAGVFSALWVALFAVAGASLVSHIPIPAMAASILLICWGLVDRRGIRALLRVSRAEFFVMALTCLATLLLELQTAIYAGVLASLFFYLKRTSQPRVQQWREGDEDVLRVGGSIFFGASHYLQTRLQRTEGLRVVIDAQQINFIDYSGVEMLHQEARRLGQQGRVLVLRNARPLVIEELHKLEGPENCPILFED | failed
3 | MSELGNRAKDQKKIYQRWAPVYDRVYRGILRDGHRKLAGLAAAAGTDILEIGTGTGLTLAHYPSRCRVTGIDISEHMIARAREKVRRENLRHVRALEVMDAHVLRFADKSFDVVCLPFVITLIPEPERALDECARVLRPGGEIILASKLGDGAGLQGAIEAAVAPLVRHIGWSSAFRIHRIVAWAERRGDFSTAEILPVFPNGFFKIVRLKQRGFSA | failed
4 | MEFLSLVIVVVAAFMTPIIVHRFNINFLPVVVAEILMGIVIGHSFLNLVERDAFLNILSTLGFIFLMFLSGLEIDFNAFKKDSRPRQGEDKHEKDVPGHLKLALTVFAFIMMISVVLAFAFKWLGLVNDVLLMVIIISTISLGVVVPTLKEMNIMRTTIGQFILLVAVLADLFTMILLTVYGAIYGEGGSTIWLTGILVVFTVVFYVIGVLFKRMSFLQKLMDGTTQIGIRAVFALIILLVALAEGVGAEYILGAFLAGVVVSLLKPNEEMVEKLDSFGYGFFIPIFFIMVGVDLDIPSLIKEPSLLLIIPVLIFSFIISKLIPVFYIRRWFDTKTTIASAFLLTSTLSLVIAAAKIAEKLKAISPETSGILILSAVITCVFVPVIFKKMFPIPNEVGRRIEVSMIGKNQLTIPIAQNLTSQLYDISLYYRKDLSDSRKLSDDITMIEIADYEEDLLERLGLFERDIVVCSTNDDHINKSVALMAKKHGVKRVICRLESTNEDPTLKHQGIEVFSNYLSNKILLKSLIETPNMLNLLSNVETSLYEIQMLNYQYENIQLRNFPFGGDIIFVRIIRDNDSIVPHGDTQLRYKDRLIVTGTKEYVDELKQELEFYY | failed
5 | MELMKKFTSYTCSPIFVVVACAICLLVGFSINSSIIEIFASVMGIINVWLLSREKVSNFIFGIITVVAYLYIYYNTGLYALAVLACFQVGFNIFGWYYWVKNSDQEDNVVTSGLTKKGQILWTIIILAAWAVWGYVEINILHAQNAILDSLTAVLGLVAQYWLSKKLYENWILWILSNILFIIIYILNGYYVMLILVAIQLILSISGLLEWYASFKEQGENKLTL | failed
6 | MTTPFVLAVPSKGRLQENAEAFFARAGLTLSKLGGARDYRGTIAGLDNVEIAYLSASEIAAQLARGTVHLGITGEDLIRESIADADKKVALIEGLGFGGANVVVAVPQAWIDVRTMADLDDVTTGFRAQHNRRMRVATKYINLTRNFFAAHGVVDYRIVESAGATEGAPAVGTAEMIVDITSSGATLVANGLKVLDDGVILRSQANLVASRAADWSADALETARVILDRIAARARANKYKEVRTRFAGCDASLLTEAHNRFGVVSPFGGPTSSGMITLHCPPAQLYALGSFLRDHGADTVSIASLDYVLDRENPLFAKLESFLRQ | failed
7 | MSTDEERIYSIALTQIPGVGHIGAKRLVDGMGSATDVFRYRTELPDRLPGVNRAVVAALDSPQALKRAEQEYEFARNNRISCFTLADEDYPSRLRECDDAPVVLFFKGKANLNALHIINMVGTRNATDYGKHICVSFLQELQMLCPDVLVVSGLAYGIDINAHRSALSVELPTVGVLAHGLDRIYPSLHRKTAIDMLRQGGLLTEFLSGTNPDKHNFISRNRIVAGISDATIVVESAAKGGSLITADIAGSYHRDCFAFPGRVTDEYSKGCNQLIQDNKAVLLESASDFVKTMGWDSDLKSVKPETVQRNLFPDLSAEELRIVDILGKLGDLQINALMVQADIPINKISAILFELEMKGVIRVLAGGVYQLLR | failed
8 | MASQITGSFTSLTKLITAGSYLAGLGFSIGAIMKFKQHKDNPTQIPIGTPIALIFIAAALLFLPSILGVAGVTMFGGSGGKTAGPTGTIYKTN | failed
9 | MTLSPNLRGALWMLASAVGFTVMTTLIKFLGDDYPAALQTFYRQLAGVLVLLPLIARDWRGAFRTTRPGIVIFRSSAGVLALIMSFYAYQKLPLADANALSFTRTLWLVPLAGLVLREPIGPRRISAALVGFVGVLIMLQPGAGGVEAWLGWPQLCALGAAFLFALTITGMKVMTRDHTPFVLLVYAAVLGLVFAIPPALFVWRWPTWPDLGLLAAMGVIGTLTQGAYIKGMEAGEAAVMAPVDYTRLVFAVIVGFLLFQEVPRTATVVGAVIVVGSTLFISWREHQLAKQAAAEPT | failed
10 | MSLAVKPGEPLPDFLLLDPKGQPVTPATVSKPAVIVFWASWCTVCKAEFPGLHRVAEETGVPFYVISREPRDTREVVLEYMKTYPRFIPLLASDRDRPHEVAARFKVLGQPWTFVVDREGKVVALFAGRAGREALLDALLLAGADLEGHHHHHH | not failed
11 | MALAGLLLGSALASSARAQSSDAAKPELEDALAVVDSLRRAGAFPAAQERLQSLREQHPERVPVLWRLVYTYADLGQSTDEENVRAQYYNNALNVAKAGLAADSTSARAHLAMAVAQGRAALDAGTRERIERSRAVKRHADRALAIDSTLDGAYHTRGRWHREVEDIGFVQRAIVKTVYGGLPESSIDQAVRDFRRALELRDRIFHHLELGKTYLQMDRPDAARRELRAVLDMPAEEPFDPRYKDEARRLLDDLD | failed
12 | MRSMLQDSLVLLDYLRGMLLHNEELWLLLFPVMIIIELPLYLLVLTGIFRWSYMREEPELKRFPSVSFVITCYGEGEAIGITIDTLVEQIYPGHIEILAVVDGAVQNQDTYKAALNGERRHTGVRNRKVRVLPKWQRGGRVSTLNAGLSMASGEIVINVDGDTSFDNDMVFTMMKQFADKNVIASGGALRVRNHNANLLTKMQSLEYMLSMQAGKTGMATWGVLNNISGAFGAFRKNLLKQVGGWDTHTAEDLDLTMRLKQYKCRYPDNKLAFSTHSIGHTDVPDTLKGLVLQRLRWDGDLLFLFLRKHNEGLSPRLLGWGNFVFTLAYGVIQNVLLPLLVVIFSVYMVIVYPLKFVLALMLMLYFVYLFLSALIFVVYIGLVSERKKEDLKSVKWLFLYPVYQFFMRLITAFSMVNEVVRRSHEESSMAPWWVLKRGKKF | failed
13 | MAGGVDGPIGIPFPDHSSDILSGLNEQRTQGLLCDVVILVEGREFPTHRSVLAACSQYFKKLFTSGAVVDQQNVYEIDFVSAEALTALMDFAYTATLTVSTANVGDILSAARLLEIPAVSHVCADLLDRQIL | failed
14 | MFKRFVLSLAFLIMAAVVSFQVIFTVPEHPQIITQTGSEITEDIRCIEFSGAKALDDNGELNLLVWNIYKQNRANWQSELELFSADKQLLLLQEASMTDSFKQWLVDGSWVSNQVSAFKALGSGAGVISIAQKQPIKACAYTSKEPWLRLPKSALYSQYRLSNGESLAVINVHAINFTVGTEEYTSQLSALETLLKQHSGPIVFAGDFNSWSEYRITAMKQALREANLREVQFSPDHRTQFITGLPLDHVFYRGLTLKNAKAPQSDASDHNPLLVSFTLND | failed
15 | VKRAVQKTSDLIVLGLPWKTTEQDLKEYFSTFGEVLMVQVKKDLKTGHSKGFGFVRFTEYETQVKVMSQRHMIDGRWCDCKLPNSKQSQD | not failed
16 | MSIAIRIATIGALCAASAALSGCGSVGAASGALAGAATGLVTANPAVGVGVGIAVQAATDEAVNRTMKQLHQNQQDAIAKAAGSLAVGEVKPWKVKNTLPLENGEGEVRVTRAYSTALALCKEFAFSVKDGDKADWYFANACQQGTHWKWASAEPAVDRWGNLQ | failed
17 | MRKVRIANEQTEESDIIKIVHLSDIHFSEAYYMPEIADSMLQIINESSPDIVIITGDLTENGFAAEYNGAKNFIDKIECKNKVIVPGNHDSKNAGYLFFEDIFKARSSSGYFGDVTVIGLDSSQPELDDGHIGRENYGWIESTFSTGSFKVFALHHHLIPIPKTGRGNNVLVDAGDVLELLDRSGVNLVLCGHWHIPWVWRLNDMFIISAGTVCSSKIRGKTSQCYNLIELETPESECTRWHLRITRVFSSGIKELVVDNIV | failed
18 | MPPTQAESVIRSIIREIGQECAAHGEIVSETLIAFMVKAVVLDPSNGFNMDRTLMKSDVQNLVKLCMTRLLDTKNPSLDTIKMQVYFDMNYTNRVEFLEEHHRVLESRLGSVTREITDNRACAKEELESLYRKIISYVLLRSGLGSPTDIKTVREVTAALQSVFPQAELGTFLTLSKKDKERQLKELTMIVTGIRLFNRDCGKGGEGIDDLPAVLHVAIPATMQHIDYQLETARSQVYRYTAILEKAANDPLMRAELQPYMLKEALYNIRQYEVFLQIILSDIITGAQEVEMMTKQLGAHLEQLKMTIKSKIAVPTSQVFPIFIALSTLWTSLQDETIVVGVLSNLFTHIQPFLGAHELYFPERVMQCHLNGATVKTDVCRMKEHMEDRVNVADFRKLEWLFPETTANFDKLLIQYRGFCAYTFAATDGLLLPGNPAIGILKYKEKYYTFNSKDAAYSFAENPEHYIDIVREKAKKNTELIQLLELHQQFETFIPYSQMRDADKHYIKPITKCESSTQTNTHILPPTIVRSYEWNEWELRRKAIKLANLRQKVTHSVQTDLSHLRRENCSQVYPPKDTSTQSMREDSTGVPRPQIYLAGLRGGKSEITDEVKVNLTRDVDET | failed
19 | MIVASSAAYRLHQGDALRLLCGIDSASVDAVITDPPYCSGAMRMADRFKPTKRKYINNGTKHVAPDFDCDFRDHRGFLAWSSQWLSECRRVTRPGGVLLVFTDWRMLPTLTDAVQSAGWAWQGIVVWDKTPACRPQLGRFRSQAEFIVWASCGLMNPKAHPVTPVGVFATGTAPREKRHQVGKPLALMEHLVKIVPPASTVLDPFAGSGTTGVAALRAGHRFIGMELSPWYCDVTKQRLADST | failed
20 | MSQKRLSRVIYPGTFDPITNGHLDLIERAAQMFDEVIIAVAASPSKNTLFTLEERVEFARQVTSHLDNVSAKGFSGLLVDFAKAEKANVLIRGLRTTVDFEYEFGLTNMYRRLMPGLESVFLTPAEEHAFISSTLVREVAIHGGNVDEFVPAIVANALHQKKKI | failed
21 | MFHKALITFIVLWFFLNGLGAYDFKHCQAFFKKASLQKGGVALKELPKGVYLYYSKTYPKHAKVIKSDPFVGLYLLQSAPSEYVYTLRDLDKDALIRPMASIGDKEALETRLLVGQRGYERYAQISQKTQKNGVISNICYQMLGLGVGGNGFIETKFIKRFLNQQEPYYGDIGVRLEEHHKRLVVVQFDPFFPKNPFLKNDEILAINHQKIHSLAEFEWVVSNLKYQSLAKVEIKRNHKVKEVTLKVNKRYGGFLLKDTFLERYGIALDERFIITKIGAHLPKGLDFLKLGDRILWVNYKSVASNPKALREALSAPKIELLVLRKGFEFYIKVR | failed
